Laboratory results as given in the supplement of paper PMC11246515.
± gives the standard deviation of the averaged measurements.

Test: total protein half-life in vivo (active degradation + dilution); higher = more stable protein
[1] = E. coli NCM3722 delta-clpP delta-lon delta-hslV, growth: N-lim chemostat, doubling time 6 h
[2] = E. coli NCM3722 delta-clpP, growth: N-lim chemostat, doubling time 6 h
[3] = E. coli NCM3722 delta-hslV, growth: N-lim chemostat, doubling time 6 h
[4] = E. coli NCM3722 delta-lon, growth: N-lim chemostat, doubling time 6 h
[5] = E. coli NCM3722 delta-smpB, growth: N-lim chemostat, doubling time 6 h
[6] = wild type E. coli NCM3722, growth: C-lim chemostat, doubling time 12 h
[7] = wild type E. coli NCM3722, growth: N-lim chemostat, doubling time 6 h
[8] = wild type E. coli NCM3722, growth: N-lim chemostat, doubling time 12 h
[9] = wild type E. coli NCM3722, growth: P-lim chemostat, doubling time 12 h
[10] = wild type E. coli NCM3722, growth: C-lim chemostat, doubling time 3 h
[11] = wild type E. coli NCM3722, growth: C-lim chemostat, doubling time 6 h
[12] = wild type E. coli NCM3722, growth: P-lim chemostat, doubling time 6 h

Sequence: MKICLIDETGTGDGALSVLAARWGLEHDEDNLMALVLTPEHLELRKRDEPKLGGIFVDFVGGAMAHRRKFGGGRGEAVAKAVGIKGDYLPDVVDATAGLGRDAFVLASVGCRVRMLERNPVVAALLDDGLARGYADAEIGGWLQERLQLIHASSLTALTDITPRPQVVYLDPMFPHKQKSALVKKEMRVFQSLVGPDLDADGLLEPARLLATKRVVVKRPDYAPPLANVATPNAVVTKGHRFDIYAGTPV
- total protein half-life in vivo [1]: 6.34 ± 1.2 h
- total protein half-life in vivo [2]: 5.05 ± 0.67 h
- total protein half-life in vivo [3]: 5.29 h
- total protein half-life in vivo [4]: 5.92 ± 0.037 h
- total protein half-life in vivo [5]: 5.27 ± 0.32 h
- total protein half-life in vivo [6]: 11.1 ± 1 h
- total protein half-life in vivo [7]: 5.3 ± 0.28 h
- total protein half-life in vivo [8]: 11.5 ± 1.8 h
- total protein half-life in vivo [9]: 12.9 ± 0.86 h

Sequence: MKIFLENLYHSDCYFLPIRDNQQVLVGVELITHFSSEDGTVRIPTSRVIAQLTEEQHWQLFSEQLELLKSCQHFFIQHKLFAWLNLTPQVATLLLERDNYAGELLKYPFIELLINENYPHLNEGKDNRGLLSLSQVYPLVLGNLGAGNSTMKAVFDGLFTRVMLDKSFIQQQITHRSFEPFIRAIQAQISPCCNCIIAGGIDTAEILAQITPFDFHALQGCLWPAVPINQITTLVQR
- total protein half-life in vivo [1]: 4.97 ± 0.65 h
- total protein half-life in vivo [2]: 4.111 ± 0.0084 h
- total protein half-life in vivo [3]: 3.897 ± 0.0064 h
- total protein half-life in vivo [4]: 4.44 ± 0.36 h
- total protein half-life in vivo [5]: 3.866 ± 0.031 h
- total protein half-life in vivo [10]: 2.99 ± 0.1 h
- total protein half-life in vivo [11]: 6.47 ± 1.4 h
- total protein half-life in vivo [6]: 9.89 h
- total protein half-life in vivo [7]: 4.22 ± 0.84 h
- total protein half-life in vivo [8]: 7.69 ± 1.8 h
- total protein half-life in vivo [12]: 5.87 ± 0.37 h
- total protein half-life in vivo [9]: 11.5 ± 0.35 h

Sequence: MKIFSVRQTVLPALLVLSPVVFAADEQTMIVSAAPQVVSELDTPAAVSVVDGEEMRLATPRINLSESLTGVPGLQVQNRQNYAQDLQLSIRGFGSRSTYGIRGIRLYVDGIPATMPDGQGQTSNIDLSSVQNVEVLRGPFSALYGNASGGVMNVTTQTGQQPPTIEASSYYGSFGSWRYGLKATGATGDGTQPGDVDYTVSTTRFTTHGYRDHSGAQKNLANAKLGVRIDEASKLSLIFNSVDIKADDPGGLTKAEWKANPQQAPRAEQYDTRKTIKQTQAGLRYERSLSSRDDMSVMMYAGERETTQYQSIPMAPQLNPSHAGGVITLQRHYQGIDSRWTHRGELGVPVTFTTGLNYENMSENRKGYNNFRLNSGMPEYGQKGELRRDERNLMWNIDPYLQTQWQLSEKLSLDAGVRYSSVWFDSNDHYVTPGNGDDSGDASYHKWLPAGSLKYAMTDAWNIYLAAGRGFETPTINELSYRADGQSGMNLGLKPSTNDTIEIGSKTRIGDGLLSLALFQTDTDDEIVVDSSSGGRTTYKNAGKTRRQGAELAWDQRFAGDFRVNASWTWLDATYRSNVCNEQDCNGNRMPGIARNMGFASIGYVPEDGWYAGTEARYMGDIMADDENTAKAPSYTLVGLFTGYKYNYHNLTVDLFGRVDNLFDKEYVGSVIVNESNGRYYEPSPGRNYGVGMNIAWRFE
- total protein half-life in vivo [1]: 5.463 ± 0.043 h
- total protein half-life in vivo [2]: 6.48 ± 0.072 h
- total protein half-life in vivo [5]: 5.98 ± 0.44 h
- total protein half-life in vivo [11]: 6.21 ± 0.33 h
- total protein half-life in vivo [6]: 13.6 ± 1 h
- total protein half-life in vivo [7]: 6.02 ± 0.5 h
- total protein half-life in vivo [8]: 12.9 ± 0.56 h
- total protein half-life in vivo [12]: 5.34 ± 0.089 h
- total protein half-life in vivo [9]: > 16 h

Sequence: MKIGIIGAMEEEVTLLRDKIENRQTISLGGCEIYTGQLNGTEVALLKSGIGKVAAALGATLLLEHCKPDVIINTGSAGGLAPTLKVGDIVVSDEARYHDADVTAFGYEYGQLPGCPAGFKADDKLIAAAEACIAELNLNAVRGLIVSGDAFINGSVGLAKIRHNFPQAIAVEMEATAIAHVCHNFNVPFVVVRAISDVADQQSHLSFDEFLAVAAKQSSLMVESLVQKLAHG [P0AF12]
- total protein half-life in vivo [1]: 4.9 ± 0.49 h
- total protein half-life in vivo [2]: 4.39 ± 0.069 h
- total protein half-life in vivo [3]: 4.42 ± 0.2 h
- total protein half-life in vivo [5]: 5.43 ± 0.68 h
- total protein half-life in vivo [10]: 3.27 ± 0.28 h
- total protein half-life in vivo [11]: 6.36 ± 0.19 h
- total protein half-life in vivo [6]: 12.6 ± 1.4 h
- total protein half-life in vivo [7]: 4.85 ± 0.48 h
- total protein half-life in vivo [8]: 8.24 ± 0.78 h
- total protein half-life in vivo [12]: 5.73 ± 0.097 h
- total protein half-life in vivo [9]: 12.1 ± 0.39 h

Sequence: MKIGTVAGTNDSTTTIATNDMVQEHVTNFTKELFGYIANGIGDDISSIARTMLGEVVEKIDDWQIERFQQSIQDDKISFTIQTDHSEKYSMLSGMRAHILRRNNNYQFIVTINSKNYGCSLDNTDINWCSIVYLLNNMTVNDNANDVAVTESYKPIWNWKISQYNVSDIKFETMIKPQFADRIYFSNCLPVDPTSTRPTYFGDTDGSVGAVLFALFATGHLGIMAEGENFLSQLLNIEDEVLNVLLRENFNEQLNTNVNTIISILNRRDIILESLQPYLVINKDAVTPCTFLGDQTGDRFSNICGDQFIIDLLKRIMSINENVHVLAGNHETNCNGNYMQNFTRMKPLDEDTYSGIKDYPVCFYDPKYKIMANHHGITFDDQRKRYIIGPITVSIDEMTNALDPVELAAIINKKHHAIINGKKFKTSRAISCRSFNRYFSVSTDYRPKLEALLACSQMLGINQVVAHNGNGGRERIGETGTVLGLNARDSKHAGRMFSMHNCQINPGAGPEITTPWKSYQHEKNRNGLMPLIRRRTMLQL
- total protein half-life in vivo [1]: 5.59 ± 0.23 h

Sequence: MKIHTTEALMKAEISRRSLMKTSALGSLALASSAFTLPFSQMVRAAEAPVEEKAVWSSCTVNCGSRCLLRLHVKDDTVYWVESDTTGDDVYGNHQVRACLRGRSIRRRMNHPDRLKYPMKRVGKRGEGKFERISWDEALDTISDNLRRILKDYGNEAVHVLYGTGVDGGNITNSNVPYRLMNSCGGFLSRYGSYSTAQISAAMSYMFGANDGNSPDDIANTKLVVMFGNNPAETRMSGGGVTYYVEQARERSNARMIVIDPRYNDTAAGREDEWLPIRPGTDGALACAIAWVLITENMVDQPFLDKYCVGYDEKTLPANAPRNAHYKAYILGEGPDGIAKTPEWAAKITSIPAEKIIQLAREIGSAKPAYICQGWGPQRHSNGEQTSRAIAMLSVLTGNVGINGGNSGVREGSWDLGVEWFPMLENPVKTQISVFTWTDAIDHGTEMTATRDGVRGKEKLDVPIKFLWCYASNTLINQHGDINHTHEVLQDDSKCEMIVGIDHFMTASAKYCDILLPDLMPTEQEDLISHESAGNMGYVILAQPATSAKFERKPIYWMLSEVAKRLGPDVYQTFTEGRSQHEWIKYLHAKTKERNPEMPDYEEMKTTGIFKKKCPEEHYVAFRAFREDPQANPLKTPSGKIEIYSERLAKIADTWELKKDEIIHPLPAYTPGFDGWDDPLRKTYPLQLTGFHYKARTHSSYGNIDVLQQACPQEVWINPIDAQARGIRHGDTVRVFNNNGEMLIAAKVTPRILPGVTAIGQGAWLKADMFGDRVDHGGSINILTSHRPSPLAKGNPSHSNLVQIEKV
- total protein half-life in vivo [1]: 6.47 ± 2.1 h
- total protein half-life in vivo [5]: 4.94 h
- total protein half-life in vivo [11]: 4.9 h
- total protein half-life in vivo [6]: 13.9 h
- total protein half-life in vivo [8]: 3.57 h
- total protein half-life in vivo [9]: 3.5 h

Sequence: MKILLAALTSSFMLVGCTPRIEVAAPKEPITINMNVKIEHEIIIKADKDVEELLETRSDLF
- total protein half-life in vivo [1]: 7.04 ± 0.68 h
- total protein half-life in vivo [4]: 6.88 ± 0.2 h
- total protein half-life in vivo [5]: 5.661 ± 0.018 h
- total protein half-life in vivo [10]: 3.15 ± 0.11 h
- total protein half-life in vivo [6]: 12 ± 1.4 h
- total protein half-life in vivo [8]: 13.6 ± 1.1 h
- total protein half-life in vivo [9]: 12.9 ± 0.47 h

Sequence: MKILVIGPSWVGDMMMSQSLYRTLQARYPQAIIDVMAPAWCRPLLSRMPEVNEAIPMPLGHGALEIGERRKLGHSLREKRYDRAYVLPNSFKSALVPFFAGIPHRTGWRGEMRYGLLNDVRVLDKEAWPLMVERYIALAYDKGIMRTAQDLPQPLLWPQLQVSEGEKSYTCNQFSLSSERPMIGFCPGAEFGPAKRWPHYHYAELAKQLIDEGYQVVLFGSAKDHEAGNEILAALNTEQQAWCRNLAGETQLDQAVILIAACKAIVTNDSGLMHVAAALNRPLVALYGPSSPDFTPPLSHKARVIRLITGYHKVRKGDAAEGYHQSLIDITPQRVLEELNALLLQEEA
- total protein half-life in vivo [1]: 6.06 ± 0.088 h
- total protein half-life in vivo [2]: 6.69 ± 0.98 h
- total protein half-life in vivo [3]: 5.71 ± 0.23 h
- total protein half-life in vivo [4]: 5.22 ± 0.11 h
- total protein half-life in vivo [5]: 6.11 ± 0.48 h
- total protein half-life in vivo [10]: 3.24 ± 0.14 h
- total protein half-life in vivo [11]: 5.58 ± 0.14 h
- total protein half-life in vivo [6]: 11.7 ± 2.8 h
- total protein half-life in vivo [7]: 6.4 ± 0.97 h
- total protein half-life in vivo [8]: 11.1 ± 1.8 h
- total protein half-life in vivo [12]: 6.54 ± 0.24 h
- total protein half-life in vivo [9]: 11.7 ± 1.7 h

Sequence: MKILVYGINYSPELTGIGKYTGEMVEWLAAQGHEVRVITAPPYYPQWQVGENYSAWRYKREEGAATVWRCPLYVPKQPSTLKRLLHLGSFAVSSFFPLMAQRRWKPDRIIGVVPTLFCAPGMRLLAKLSGARTVLHIQDYEVDAMLGLGLAGKGKGGKVAQLATAFERSGLHNVDNVSTISRSMMNKAIEKGVAAENVIFFPNWSEIARFQHVADADVDALRNQLDLPDNKKIILYSGNIGEKQGLENVIEAADRLRDEPLIFAIVGQGGGKARLEKMAQQRGLRNMQFFPLQSYDALPALLKMGDCHLVVQKRGAADAVLPSKLTNILAVGGNAVITAEAYTELGQLCETFPGIAVCVEPESVEALVAGIRQALLLPKHNTVAREYAERTLDKENVLRQFINDIRG
- total protein half-life in vivo [1]: 4.84 h
- total protein half-life in vivo [5]: 5.37 h

Sequence: MKIRSQVGMVLNLDKCIGCHTCSVTCKNVWTGREGMEYAWFNNVETKPGIGYPKNWEDQEEWQGGWVRDVNGKIRPRLGNKMGVITKIFANPVVPQIDDYYEPFTFDYEHLHSAPEGKHIPTARPRSLIDGKRMDKVIWGPNWEELLGGEFEKRARDRNFEAMQKEMYGQFENTFMMYLPRLCEHCLNPSCVATCPSGAIYKREEDGIVLIDQDKCRGWRLCISGCPYKKIYFNWKSGKSEKCIFCYPRIESGQPTVCSETCVGRIRYLGVLLYDADRIEEAASTEREVDLYERQCEVFLDPHDPSVIEEALKQGIPQNVIDAAQRSPVYKMAMDWKLALPLHPEYRTLPMVWYVPPLSPIQSYADAGGLPKSEGVLPAIESLRIPVQYLANMLSAGDTGPVLRALKRMMAMRHYMRSQTVEGVTDTRAIDEVGLSVAQVEEMYRYLAIANYEDRFVIPTSHREMAGDAFAERNGCGFTFGDGCHGSDSKFNLFNSSRIDAINITEVRDKAEGE
- total protein half-life in vivo [1]: 6.49 ± 0.73 h
- total protein half-life in vivo [2]: 5.74 ± 0.49 h
- total protein half-life in vivo [3]: 6.23 ± 0.64 h
- total protein half-life in vivo [4]: 6.34 ± 1.3 h
- total protein half-life in vivo [5]: 5.77 ± 1.2 h
- total protein half-life in vivo [10]: 3.14 ± 0.27 h
- total protein half-life in vivo [11]: 5.54 ± 0.12 h
- total protein half-life in vivo [6]: 10.3 ± 0.17 h
- total protein half-life in vivo [7]: 5.94 ± 0.089 h
- total protein half-life in vivo [8]: 12.5 ± 0.46 h
- total protein half-life in vivo [12]: 5.68 ± 0.26 h
- total protein half-life in vivo [9]: 11.62 ± 0.051 h
